From patent US20240116985A1 (published 2024)
Starred links: 1 amine or outer side, 2 acyl side, 3 side chain; linkers in the order of their positions; H or OH if unused. Positions of bridges follow the written chain, without caps; N, C: chain ends. Non-standard residues stand in square brackets, D forms with d. Primed or numbered codes have the meaning given here. B5(17) = 2,2-bis(4-pentenyl)glycine = 2-amino-2-(pent-4-en-1-yl)hept-6-enoic acid, stitching residue, C=CCCCC(CCCC=C)(N[*:1])C(=O)[*:2]; B5(4) = 2,2-bis(4-pentenyl)glycine = 2-amino-2-(pent-4-en-1-yl)hept-6-enoic acid (stitching residue), C=CCCCC(CCCC=C)(N[*:1])C(=O)[*:2]; Bta = N[C@@H](Cc1csc2ccccc12)C(=O)O; αAllylPro = C=CC[C@@]1(C(=O)O)CCCN1; S8 = C=CCCCCCC[C@](C)(N)C(=O)O

Assays:
[1] = molecular target: T1, full-length beta-Catenin (Uniprot ID P35222) (Homo sapiens (Human), UniProt P35222 1-781); experiment: competition fluorescence polarization; full-length beta-catenin, 5FAM-TCF4(10-53) probe as competitor
T1 construct: also called bCat; B-Catenin
T1 sequence: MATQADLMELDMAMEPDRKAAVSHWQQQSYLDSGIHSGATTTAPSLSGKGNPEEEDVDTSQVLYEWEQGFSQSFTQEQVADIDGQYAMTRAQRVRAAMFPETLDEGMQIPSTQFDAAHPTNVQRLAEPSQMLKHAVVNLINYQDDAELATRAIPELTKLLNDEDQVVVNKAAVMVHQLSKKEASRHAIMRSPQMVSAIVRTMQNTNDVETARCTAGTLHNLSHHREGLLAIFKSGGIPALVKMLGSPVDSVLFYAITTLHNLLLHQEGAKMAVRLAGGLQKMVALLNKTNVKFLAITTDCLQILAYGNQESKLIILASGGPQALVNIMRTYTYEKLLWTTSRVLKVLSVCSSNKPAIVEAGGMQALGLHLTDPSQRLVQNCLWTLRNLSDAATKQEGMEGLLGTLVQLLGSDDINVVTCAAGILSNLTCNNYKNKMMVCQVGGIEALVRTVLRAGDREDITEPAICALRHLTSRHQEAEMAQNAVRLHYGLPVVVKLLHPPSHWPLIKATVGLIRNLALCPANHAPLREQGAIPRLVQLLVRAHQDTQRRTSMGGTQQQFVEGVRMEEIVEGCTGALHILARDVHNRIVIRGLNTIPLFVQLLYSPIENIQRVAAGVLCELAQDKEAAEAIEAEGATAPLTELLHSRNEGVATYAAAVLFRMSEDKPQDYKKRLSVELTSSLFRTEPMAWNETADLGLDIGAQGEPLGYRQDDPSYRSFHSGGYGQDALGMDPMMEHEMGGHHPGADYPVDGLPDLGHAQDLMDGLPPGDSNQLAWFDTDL
Experimental: The plate was incubated protected from light for 60 minutes at 20° C. prior to read. Reads were performed on a CLARIOstar plate reader (BMG Labtech) in duplicate, and data were fitted to a 1:1 binding model with hill slope using an in-house script. All provided concentrations are final concentrations.

B-cat-Halo = molecular target: T2, B-cat-Halo (UniProt P35222 1-781, HaloTag NanoBRET 618 Ligand bound in the assay); experiment: NanoBRET Abs IC50 in HEK293 cells; B-cat-Halo, competitor TCF4-Luc
T2 construct: Transfected into HEK293 cells for the NanoBRET assay; also called beta-catenin HaloTag NanoBRET construct; not shown: HaloTag
T2 sequence (looked up): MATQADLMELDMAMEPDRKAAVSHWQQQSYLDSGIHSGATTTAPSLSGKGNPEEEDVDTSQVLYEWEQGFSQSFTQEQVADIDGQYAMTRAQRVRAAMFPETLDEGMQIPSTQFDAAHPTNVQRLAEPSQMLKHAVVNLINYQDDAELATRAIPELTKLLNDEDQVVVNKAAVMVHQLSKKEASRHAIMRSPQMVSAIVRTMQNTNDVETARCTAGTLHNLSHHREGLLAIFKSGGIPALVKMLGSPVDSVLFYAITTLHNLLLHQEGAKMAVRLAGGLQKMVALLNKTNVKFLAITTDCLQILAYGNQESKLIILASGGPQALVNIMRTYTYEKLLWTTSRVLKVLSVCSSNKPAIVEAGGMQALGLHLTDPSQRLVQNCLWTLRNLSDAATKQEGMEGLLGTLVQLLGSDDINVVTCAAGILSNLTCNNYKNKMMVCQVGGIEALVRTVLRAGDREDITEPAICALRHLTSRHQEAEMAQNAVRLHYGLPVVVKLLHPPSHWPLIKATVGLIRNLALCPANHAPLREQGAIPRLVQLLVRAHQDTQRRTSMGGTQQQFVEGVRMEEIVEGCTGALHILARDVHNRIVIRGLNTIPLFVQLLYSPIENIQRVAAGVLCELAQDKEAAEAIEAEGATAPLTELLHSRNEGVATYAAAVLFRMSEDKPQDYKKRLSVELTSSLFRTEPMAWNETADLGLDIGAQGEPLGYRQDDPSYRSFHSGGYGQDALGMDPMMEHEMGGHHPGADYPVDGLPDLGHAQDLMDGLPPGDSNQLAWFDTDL

[2] = molecular target: T3, full-length beta-Catenin (Uniprot ID P35222) (Homo sapiens (Human), UniProt P35222 1-781); experiment: fluorescence polarization competition; full-length beta-catenin, competitor 5FAM-TCF4(10-53) probe
T3 construct: also called bCat; B-Catenin
T3 sequence: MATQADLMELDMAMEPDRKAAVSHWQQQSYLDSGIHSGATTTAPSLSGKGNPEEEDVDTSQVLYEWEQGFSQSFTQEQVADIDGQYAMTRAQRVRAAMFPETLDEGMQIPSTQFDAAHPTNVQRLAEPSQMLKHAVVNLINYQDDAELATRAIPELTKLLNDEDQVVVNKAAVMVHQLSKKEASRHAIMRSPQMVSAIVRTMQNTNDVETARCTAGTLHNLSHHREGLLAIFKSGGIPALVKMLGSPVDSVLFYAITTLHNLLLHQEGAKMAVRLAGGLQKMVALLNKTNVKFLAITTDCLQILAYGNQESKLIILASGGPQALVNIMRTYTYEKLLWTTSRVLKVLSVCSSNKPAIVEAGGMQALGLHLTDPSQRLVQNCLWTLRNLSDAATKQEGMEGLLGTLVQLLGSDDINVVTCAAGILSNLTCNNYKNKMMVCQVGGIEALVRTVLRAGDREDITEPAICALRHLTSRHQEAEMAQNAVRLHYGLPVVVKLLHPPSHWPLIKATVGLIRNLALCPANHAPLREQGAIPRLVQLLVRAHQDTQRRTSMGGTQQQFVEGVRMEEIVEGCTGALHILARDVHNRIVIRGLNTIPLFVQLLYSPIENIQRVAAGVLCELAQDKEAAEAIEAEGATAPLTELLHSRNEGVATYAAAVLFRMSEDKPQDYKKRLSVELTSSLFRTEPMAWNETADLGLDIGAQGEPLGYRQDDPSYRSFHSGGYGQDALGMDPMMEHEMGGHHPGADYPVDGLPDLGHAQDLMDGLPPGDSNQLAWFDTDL
Summary of the method: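 Incubate 60 minutes at 20° C. away from light, then read polarization in duplicate. Fit to 1:1 binding with hill slope.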

B1: I-566 (peptide)
peptide: XDVXDDAAFNXFXQ
modifications: not fully specified; N-terminal Ac; C-terminal NH2; non-natural PL3 (1), B5 (4), S8 (11), BztA (13); stapled PL3-B5 and B5-S8 by olefin metathesis
notes: Stapled peptide composition; also called Ac-PL3-Asp-Val-B5-Asp-Asp-Ala-Ala-Phe-Asn-S8-Phe-BztA-Gln-NH2
Work on B1 yielded an IC50 [1] of 76 nM.

B2: I-567 (peptide)
peptide: XDVXDDAAFNXFXQ
modifications: not fully specified; N-terminal Ac; C-terminal NH2; non-natural PL3 (1), B5 (4), S8 (11), BztA (13); stapled PL3-B5 and B5-S8 by olefin metathesis
notes: as for B1
In the case of B2, the IC50 [1] is reported as 37 nM.

B3: I-730 (peptide)
peptide: XDLXDEAAFNXFXQA
modifications: not fully specified; N-terminal Ac; C-terminal NH2; PL3 at 1, B5 at 4, S8 at 11, BztA at 13; stapled PL3-B5 and B5-S8 by olefin metathesis
notes: Stapled peptide; also called Ac-PL3-Asp-Leu-B5-Asp-Glu-Ala-Ala-Phe-Asn-S8-Phe-BztA-Gln-Ala-NH2
For B3, the IC50 (B-cat-Halo) was 11200 nM and the IC50 [2] was 35 nM.

B4: I-731 (peptide)
peptide: Ac-[αAllylPro]DL[B5(17)]DEAAFN[S8]F[Bta]Q[dA]-NH2
modifications: staple 1-4, 4-11
notes: also called Ac-PL3-Asp-Leu-B5-Asp-Glu-Ala-Ala-Phe-Asn-S8-Phe-BztA-Gln-dAla-NH2
For B4, the IC50 (B-cat-Halo) was 11600 nM and the IC50 [2] was 34 nM.

B5: I-749 (peptide)
peptide: XDLXDEAAFNXFXT
modifications: not fully specified; N-terminal Ac; C-terminal NH2; PL3 at 1, B5 at 4, S8 at 11, BztA at 13; stapled PL3-B5 and B5-S8 by olefin metathesis
notes: Stapled peptide; also called Ac-PL3-Asp-Leu-B5-Asp-Glu-Ala-Ala-Phe-Asn-S8-Phe-BztA-Thr-NH2
Work on B5 yielded an IC50 (B-cat-Halo) of 9000 nM and an IC50 [2] of 40 nM.

B6: I-750 (peptide)
peptide: Ac-[αAllylPro]DL[B5(4)]DEAAFN[S8]F[Bta]S-NH2
modifications: staple 1-4, 4-11; also: olefin E/Z not assigned, earlier-eluting staple isomer
notes: Stapled peptide; same description as I-751, earlier eluting staple isomer composition; also called Ac-PL3-Asp-Leu-B5-Asp-Glu-Ala-Ala-Phe-Asn-S8-Phe-BztA-Ser-NH2
B6 was tested, and the IC50 (B-cat-Halo) was 7400 nM and the IC50 [2] was 43 nM.
